Source: the supplement of paper PMC10065799, “High-throughput profiling of sequence recognition by tyrosine kinases and SH2 domains using bacterial peptide display” (eLife, 2023)

How the values were obtained:
[1] = target: FGFR1 (UniProt P11362); assay: phosphorylation enrichment, bacterial display (enrichment ratio); higher = better substrate or ligand; peptides without Tyr show the background
[2] = system: AncSZ; assay: as above
[3] = system: c-Src; assay: as above
[4] = target: Fes (UniProt P07332); assay: as above
[5] = target: Jak2 (UniProt O60674); assay: as above
[6] = target: EPHB2 (UniProt P29323); assay: as above
[7] = target: Fyn (UniProt P06241); assay: as above
[8] = system: Fer (mouse); assay: as above
[9] = system: c-Abl (mouse); assay: as above
[10] = target: EPHB1 (UniProt P54762); assay: as above
[11] = target: Hck (UniProt P08631); assay: as above
[12] = target: MERTK (UniProt Q12866); assay: as above
[13] = target: FGFR3 (UniProt P22607); assay: as above
[14] = target: Grb2 SH2 (UniProt P62993); assay: SH2 binding enrichment of the phosphorylated peptide, bacterial display (enrichment ratio); higher = better substrate or ligand; peptides without Tyr show the background
[15] = target: SHP2-C SH2; assay: as above
[16] = target: c-Src SH2; assay: as above
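For SH2 binding enrichment of the phosphorylated peptide, bacterial display in this document: peptide library displayed on the E. coli surface as eCPX fusions, selected cells deep-sequenced, score is each peptide's frequency after selection divided by its frequency in the input.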
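For phosphorylation enrichment, bacterial display in this document: 11-residue human phosphosite peptides and single-mutation variants displayed on the E. coli surface, counted by deep sequencing, each peptide's frequency after selection divided by its frequency in the unselected input library; frequency after pTyr selection over input frequency; kinase dosed for 20-30% of maximal phosphorylation in three min.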

Chain of FGFR1 (P11362 whole entry, looked up): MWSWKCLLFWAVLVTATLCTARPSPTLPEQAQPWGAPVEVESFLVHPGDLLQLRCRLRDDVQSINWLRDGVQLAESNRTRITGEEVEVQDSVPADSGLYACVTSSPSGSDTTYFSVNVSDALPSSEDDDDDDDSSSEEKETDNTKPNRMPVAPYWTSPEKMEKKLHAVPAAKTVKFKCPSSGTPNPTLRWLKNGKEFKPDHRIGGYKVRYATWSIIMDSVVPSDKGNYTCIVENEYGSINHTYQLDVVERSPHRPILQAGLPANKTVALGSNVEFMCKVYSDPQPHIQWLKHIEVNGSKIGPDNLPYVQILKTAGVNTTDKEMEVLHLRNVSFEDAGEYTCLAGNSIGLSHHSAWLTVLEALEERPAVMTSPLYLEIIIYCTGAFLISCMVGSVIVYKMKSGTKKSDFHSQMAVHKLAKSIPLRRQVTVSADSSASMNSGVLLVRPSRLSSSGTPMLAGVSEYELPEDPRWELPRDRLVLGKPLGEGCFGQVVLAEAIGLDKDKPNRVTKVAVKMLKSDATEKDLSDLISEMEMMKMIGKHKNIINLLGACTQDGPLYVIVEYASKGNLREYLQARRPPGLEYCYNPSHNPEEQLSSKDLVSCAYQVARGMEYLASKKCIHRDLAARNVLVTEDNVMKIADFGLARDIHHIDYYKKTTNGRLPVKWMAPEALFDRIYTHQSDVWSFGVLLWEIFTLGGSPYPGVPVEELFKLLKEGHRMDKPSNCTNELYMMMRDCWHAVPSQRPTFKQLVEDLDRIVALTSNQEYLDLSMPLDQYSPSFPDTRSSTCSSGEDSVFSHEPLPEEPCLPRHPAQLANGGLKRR
Chain of Hck (P08631 whole entry, looked up): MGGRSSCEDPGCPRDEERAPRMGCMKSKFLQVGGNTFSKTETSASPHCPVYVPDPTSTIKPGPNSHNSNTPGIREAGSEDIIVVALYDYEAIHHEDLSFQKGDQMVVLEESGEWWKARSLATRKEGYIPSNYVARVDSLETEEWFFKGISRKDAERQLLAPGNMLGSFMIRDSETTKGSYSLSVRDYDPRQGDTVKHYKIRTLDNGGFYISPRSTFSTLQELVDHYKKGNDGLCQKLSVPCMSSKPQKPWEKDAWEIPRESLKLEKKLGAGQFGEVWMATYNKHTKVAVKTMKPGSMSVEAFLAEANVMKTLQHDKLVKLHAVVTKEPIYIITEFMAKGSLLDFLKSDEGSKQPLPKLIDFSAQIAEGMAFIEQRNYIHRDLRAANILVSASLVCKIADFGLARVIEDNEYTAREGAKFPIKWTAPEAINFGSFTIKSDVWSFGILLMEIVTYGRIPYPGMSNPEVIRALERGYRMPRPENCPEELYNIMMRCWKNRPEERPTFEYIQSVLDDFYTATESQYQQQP
Chain of FGFR3 (P22607 whole entry, looked up): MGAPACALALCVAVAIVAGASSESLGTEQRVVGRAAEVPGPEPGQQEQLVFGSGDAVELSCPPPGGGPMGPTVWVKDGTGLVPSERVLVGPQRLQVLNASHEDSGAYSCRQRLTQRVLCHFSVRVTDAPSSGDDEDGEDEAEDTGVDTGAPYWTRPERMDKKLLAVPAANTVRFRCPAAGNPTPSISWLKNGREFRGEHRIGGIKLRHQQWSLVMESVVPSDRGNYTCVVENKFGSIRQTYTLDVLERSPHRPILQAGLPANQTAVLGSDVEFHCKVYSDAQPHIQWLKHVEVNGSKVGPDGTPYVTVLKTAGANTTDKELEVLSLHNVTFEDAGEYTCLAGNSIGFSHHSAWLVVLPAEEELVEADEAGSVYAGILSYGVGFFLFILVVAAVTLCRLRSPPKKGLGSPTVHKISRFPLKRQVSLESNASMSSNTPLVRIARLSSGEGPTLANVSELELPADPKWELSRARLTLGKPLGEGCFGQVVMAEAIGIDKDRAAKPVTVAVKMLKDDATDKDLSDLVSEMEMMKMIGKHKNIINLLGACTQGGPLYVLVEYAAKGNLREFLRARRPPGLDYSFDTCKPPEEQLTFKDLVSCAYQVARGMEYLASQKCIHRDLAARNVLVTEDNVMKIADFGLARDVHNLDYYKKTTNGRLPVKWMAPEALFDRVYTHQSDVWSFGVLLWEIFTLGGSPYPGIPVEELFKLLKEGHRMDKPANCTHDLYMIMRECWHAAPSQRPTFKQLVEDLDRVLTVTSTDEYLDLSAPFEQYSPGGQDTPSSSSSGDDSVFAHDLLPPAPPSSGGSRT
Chain of EPHB2 (P29323 whole entry, looked up): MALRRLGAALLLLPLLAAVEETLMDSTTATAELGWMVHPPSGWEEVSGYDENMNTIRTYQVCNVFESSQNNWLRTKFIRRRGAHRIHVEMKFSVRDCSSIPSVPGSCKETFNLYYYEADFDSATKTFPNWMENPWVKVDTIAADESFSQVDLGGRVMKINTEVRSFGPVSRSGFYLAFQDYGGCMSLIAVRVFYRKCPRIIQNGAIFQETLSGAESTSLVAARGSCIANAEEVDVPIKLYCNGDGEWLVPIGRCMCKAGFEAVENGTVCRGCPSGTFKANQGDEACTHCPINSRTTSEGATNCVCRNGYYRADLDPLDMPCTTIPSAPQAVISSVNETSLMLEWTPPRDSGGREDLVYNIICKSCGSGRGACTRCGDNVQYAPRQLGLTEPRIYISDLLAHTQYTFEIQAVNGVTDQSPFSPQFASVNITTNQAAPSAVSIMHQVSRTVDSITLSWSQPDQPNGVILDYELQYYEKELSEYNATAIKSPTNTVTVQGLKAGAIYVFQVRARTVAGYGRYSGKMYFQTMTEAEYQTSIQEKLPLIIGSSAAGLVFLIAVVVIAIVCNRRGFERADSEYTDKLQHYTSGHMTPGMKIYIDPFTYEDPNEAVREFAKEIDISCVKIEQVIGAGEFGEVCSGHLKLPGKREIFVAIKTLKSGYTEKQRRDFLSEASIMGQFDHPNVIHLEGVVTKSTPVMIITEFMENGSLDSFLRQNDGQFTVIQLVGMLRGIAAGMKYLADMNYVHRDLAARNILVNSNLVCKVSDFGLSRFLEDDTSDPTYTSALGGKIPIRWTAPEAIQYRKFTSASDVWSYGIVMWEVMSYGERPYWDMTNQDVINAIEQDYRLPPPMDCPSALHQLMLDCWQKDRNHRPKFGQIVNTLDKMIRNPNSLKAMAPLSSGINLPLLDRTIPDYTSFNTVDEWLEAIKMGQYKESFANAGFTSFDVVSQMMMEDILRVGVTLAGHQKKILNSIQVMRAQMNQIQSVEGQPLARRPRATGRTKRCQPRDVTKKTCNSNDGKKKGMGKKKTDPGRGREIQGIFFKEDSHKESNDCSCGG
Chain of MERTK (Q12866 whole entry, looked up): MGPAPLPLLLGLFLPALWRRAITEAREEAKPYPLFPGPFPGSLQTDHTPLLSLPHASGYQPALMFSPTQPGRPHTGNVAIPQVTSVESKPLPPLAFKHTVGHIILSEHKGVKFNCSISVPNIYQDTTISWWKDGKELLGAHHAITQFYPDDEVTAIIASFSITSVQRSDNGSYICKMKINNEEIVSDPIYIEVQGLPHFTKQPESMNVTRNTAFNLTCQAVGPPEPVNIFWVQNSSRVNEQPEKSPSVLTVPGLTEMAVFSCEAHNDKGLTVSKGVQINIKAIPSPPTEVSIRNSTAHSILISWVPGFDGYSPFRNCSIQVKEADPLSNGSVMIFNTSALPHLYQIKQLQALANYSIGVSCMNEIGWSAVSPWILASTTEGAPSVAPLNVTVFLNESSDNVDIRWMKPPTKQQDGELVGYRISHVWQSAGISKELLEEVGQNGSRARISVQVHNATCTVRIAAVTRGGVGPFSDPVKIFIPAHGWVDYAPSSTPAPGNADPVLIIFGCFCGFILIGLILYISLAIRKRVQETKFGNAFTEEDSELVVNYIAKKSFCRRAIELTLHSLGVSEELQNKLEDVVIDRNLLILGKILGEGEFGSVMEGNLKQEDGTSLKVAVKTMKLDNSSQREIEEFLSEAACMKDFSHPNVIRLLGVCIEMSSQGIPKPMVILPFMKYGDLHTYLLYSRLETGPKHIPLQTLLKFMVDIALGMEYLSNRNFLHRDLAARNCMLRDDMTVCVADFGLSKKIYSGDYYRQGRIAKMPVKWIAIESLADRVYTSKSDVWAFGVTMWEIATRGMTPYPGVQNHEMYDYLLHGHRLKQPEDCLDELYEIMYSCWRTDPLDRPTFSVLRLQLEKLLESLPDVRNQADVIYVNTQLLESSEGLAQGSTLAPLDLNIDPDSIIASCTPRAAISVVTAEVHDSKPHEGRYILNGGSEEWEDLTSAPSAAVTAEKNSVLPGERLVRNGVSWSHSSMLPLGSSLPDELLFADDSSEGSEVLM
Chain of Grb2 SH2 (P62993 whole entry, looked up): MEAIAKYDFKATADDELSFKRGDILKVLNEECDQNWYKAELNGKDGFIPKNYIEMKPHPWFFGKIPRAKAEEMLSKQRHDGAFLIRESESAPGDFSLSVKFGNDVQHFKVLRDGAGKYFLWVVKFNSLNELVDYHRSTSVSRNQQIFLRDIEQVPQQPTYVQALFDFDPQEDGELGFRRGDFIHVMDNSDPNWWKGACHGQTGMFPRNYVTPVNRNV
Chain of Fyn (P06241 whole entry, looked up): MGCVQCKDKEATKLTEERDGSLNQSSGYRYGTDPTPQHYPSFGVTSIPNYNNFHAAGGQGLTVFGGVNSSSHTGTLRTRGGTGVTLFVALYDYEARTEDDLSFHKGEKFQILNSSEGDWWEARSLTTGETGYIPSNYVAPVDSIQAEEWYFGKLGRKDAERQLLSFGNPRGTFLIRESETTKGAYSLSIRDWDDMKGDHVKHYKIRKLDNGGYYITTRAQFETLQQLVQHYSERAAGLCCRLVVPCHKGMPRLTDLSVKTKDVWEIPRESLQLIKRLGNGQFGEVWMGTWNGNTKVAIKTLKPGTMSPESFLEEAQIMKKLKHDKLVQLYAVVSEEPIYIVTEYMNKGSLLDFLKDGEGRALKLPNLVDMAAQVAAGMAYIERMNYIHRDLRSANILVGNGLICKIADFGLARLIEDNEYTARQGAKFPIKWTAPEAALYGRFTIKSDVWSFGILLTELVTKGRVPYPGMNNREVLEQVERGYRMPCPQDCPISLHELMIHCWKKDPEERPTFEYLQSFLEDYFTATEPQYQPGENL

Row | Sequence | phosphorylation enrichment [1] | phosphorylation enrichment [2] | phosphorylation enrichment [3] | phosphorylation enrichment [4] | phosphorylation enrichment [5] | phosphorylation enrichment [6] | phosphorylation enrichment [7] | phosphorylation enrichment [8] | phosphorylation enrichment [9] | phosphorylation enrichment [10] | phosphorylation enrichment [11] | phosphorylation enrichment [12] | phosphorylation enrichment [13] | SH2 binding enrichment [14] | SH2 binding enrichment [15] | SH2 binding enrichment [16]
1 | REVPVYTDSEP [FAM120B_Y368] | 0.588 | 1.35 | 0.872 | 1.35 | 1.38 | 0.725 | 0.753 | 0.895 | 0.964 | 0.965 | 0.643 | 0.478 | 1.4 | 0.986 | 0.351 | 0.911
2 | DASAVYLHDFQ [PLCG2_Y242] | 0.477 | 0.746 | 0.447 | 1.31 | 0.792 | 0.561 | 0.533 | 0.474 | 0.573 | 0.528 | 0.622 | 0.477 | 0.543 | 0.933 | 0.634 | 0.542
3 | LEISPYMLSGR [LRRK2_Y1718] | 0.718 | 0.852 | 0.929 | 1.28 | 0.64 | 1.1 | 1.44 | 0.806 | 0.491 | 1.02 | 0.932 | 0.588 | 0.652 | 0.9 | 0.722 | 0.781
4 | HYGNNYRDVLQ [MACC1_Y803] | 0.444 | 0.622 | 0.652 | 0.576 | 0.661 | 0.559 | 0.353 | 0.565 | 0.438 | 0.643 | 0.694 | 0.612 | 0.423 | 0.691 | 1.79 | 0.568
5 | PKSLFYLLLKL [TRPC6_Y775] | 1.12 | 2.5 | 1.74 | 2.82 | 4.8 | 1.89 | 0.31 | 1.51 | 2.62 | 1.04 | 0.716 | 1.54 | 1.48 | 0.998 | 1.31 | 0.747
6 | KLQKFYRQNPD [EHHADH_Y683_YF] | 0.343 | 0.499 | 0.409 | 0.498 | 0.393 | 0.348 | 0.418 | 0.387 | 0.581 | 0.545 | 0.443 | 0.452 | 0.416 | 0.719 | 0.647 | 0.418
7 | IKRIDYEFVEM [ADA_Y84_A83D] | 1.02 | 0.89 | 0.404 | 1.18 | 0.932 | 3.22 | 0.469 | 1.82 | 0.622 | 6.08 | 0.477 | 0.375 | 0.742 | 0.967 | 0.56 | 0.5
8 | CEHRGYLYLAI [TEK_Y897] | 0.726 | 1.04 | 0.527 | 1.51 | 0.973 | 0.53 | 0.494 | 0.551 | 0.84 | 0.664 | 0.614 | 0.708 | 0.72 | 1.21 | 0.761 | 0.741
9 | FRPPYYHRNCM [HGD_Y334] | 0.513 | 0.708 | 0.442 | 0.88 | 0.89 | 0.449 | 0.418 | 0.477 | 0.799 | 0.429 | 0.432 | 0.426 | 0.504 | 1.21 | 1.23 | 1.15
10 | AALVQYYMEHH [PTPN11_Y80_E76A] | 0.722 | 0.937 | 0.541 | 0.912 | 0.745 | 1.17 | 0.529 | 0.415 | 0.49 | 1.9 | 0.813 | 0.68 | 0.767 | 0.991 | 1.16 | 0.742
11 | VRQQVYKKVEE [HADHA_Y283] | 0.344 | 0.617 | 0.397 | 0.716 | 0.639 | 0.411 | 0.44 | 0.331 | 0.446 | 0.378 | 0.387 | 0.346 | 0.536 | 0.736 | 0.513 | 0.427
12 | YADGVYLALEE [DUOX2_Y70_Q71L] | 1.12 | 1.66 | 2.97 | 1.31 | 1.39 | 1.28 | 2.28 | 0.531 | 0.899 | 1.82 | 1.59 | 1.13 | 1.18 | 0.83 | 0.679 | 0.869
13 | VLVSQYEKLNA [AMZ2_Y26] | 0.362 | 0.619 | 0.389 | 0.732 | 0.638 | 0.341 | 0.438 | 0.417 | 0.578 | 0.524 | 0.467 | 0.434 | 0.548 | 0.915 | 0.632 | 2.71
14 | PLDGEYFTLQV [TP53_Y327_I332V] | 12.8 | 3.87 | 2.09 | 1.94 | 2.16 | 1.44 | 5.07 | 0.842 | 1.02 | 2.21 | 2.74 | 0.494 | 10.6 | 0.688 | 0.598 | 0.483
15 | ANLAKYGNPNE [BCHE_Y505_F502L] | 0.392 | 0.778 | 0.306 | 0.779 | 0.622 | 0.455 | 0.385 | 0.391 | 0.565 | 0.492 | 0.403 | 0.379 | 0.65 | 0.645 | 0.639 | 0.425
16 | SLIDGYFRLTE [JAK2_Y372_A377E_YF] | 0.553 | 1.07 | 0.446 | 1.08 | 4.29 | 0.436 | 0.456 | 0.545 | 0.867 | 0.571 | 0.442 | 0.542 | 0.715 | 0.784 | 6.41 | 1.85
17 | RELSWYRGRRP [HESX1_Y106] | 0.53 | 1.02 | 0.727 | 0.794 | 0.895 | 0.683 | 0.781 | 0.693 | 0.787 | 0.484 | 0.809 | 0.833 | 0.563 | 0.734 | 0.422 | 0.318

Row | Sequence | phosphorylation enrichment [1] | phosphorylation enrichment [2] | phosphorylation enrichment [3] | phosphorylation enrichment [4] | phosphorylation enrichment [5] | phosphorylation enrichment [6] | phosphorylation enrichment [7] | phosphorylation enrichment [8] | phosphorylation enrichment [9] | phosphorylation enrichment [10] | phosphorylation enrichment [11] | phosphorylation enrichment [12] | phosphorylation enrichment [13] | SH2 binding enrichment [14] | SH2 binding enrichment [15] | SH2 binding enrichment [16]
18 | PQGVSYIYTID [DCX_Y103_R102S] | 1.06 | 1.62 | 6.93 | 1.79 | 1.55 | 0.856 | 10.6 | 0.728 | 1.32 | 0.985 | 5.22 | 3.15 | 1.64 | 1.05 | 13 | 0.644
19 | QEMMEYRHQIQ [DES_Y324] | 0.677 | 2.04 | 1.12 | 2.13 | 2.03 | 0.833 | 0.559 | 0.303 | 1.86 | 0.93 | 0.902 | 0.762 | 1.04 | 1.22 | 0.579 | 0.485
20 | PESIMYWKFTT [NTRK3_Y744_R745W] | 1.09 | 2.52 | 3.1 | 2.81 | 2.76 | 1.22 | 1.85 | 1.53 | 2.36 | 0.92 | 1.96 | 0.851 | 1.55 | 0.767 | 1.21 | 0.487
21 | EPFEVYRIVPE [IRF8_Y110_K108E_YF] | 1.25 | 1.05 | 3.68 | 1.03 | 0.882 | 0.72 | 3.41 | 0.411 | 0.798 | 0.662 | 2.37 | 0.62 | 1.03 | 0.916 | 0.535 | 0.521
22 | LEGEEYRMSGE [KRT3_Y511] | 0.574 | 1.69 | 0.525 | 1.41 | 1.58 | 0.598 | 0.797 | 0.937 | 0.956 | 0.891 | 0.531 | 0.462 | 0.929 | 0.908 | 0.562 | 0.461
23 | SVVVPYERPEV [TP53_Y220_P222R] | 0.495 | 0.958 | 0.432 | 0.988 | 0.846 | 0.513 | 0.475 | 0.51 | 0.731 | 0.439 | 0.502 | 0.401 | 0.627 | 0.889 | 0.57 | 1.12
24 | LGSNGCKKLLK [SEPSECS_Y334_Y334C] | 0.661 | 0.823 | 0.663 | 0.826 | 1.06 | 1.04 | 0.567 | 0.472 | 1.06 | 0.611 | 0.768 | 0.866 | 0.868 | 1.02 | 0.786 | 0.849
25 | NSNSDYVDVLP [SH2D1B_Y127] | 3.73 | 2.46 | 0.598 | 1.33 | 1.11 | 2.82 | 0.628 | 0.884 | 0.743 | 4.08 | 0.735 | 0.54 | 2.95 | 0.835 | 0.43 | 0.485
26 | IGGHAYGDQFR [IDH1_Y135_R132G_YF] | 0.351 | 0.464 | 0.317 | 0.567 | 0.499 | 0.324 | 0.296 | 0.259 | 0.418 | 0.3 | 0.36 | 0.306 | 0.405 | 0.826 | 0.852 | 0.571
27 | YRGYSYDDIPD [TMEM230_Y112] | 0.531 | 0.973 | 0.463 | 0.964 | 0.973 | 0.485 | 0.442 | 0.439 | 0.762 | 0.483 | 0.51 | 0.393 | 0.662 | 1.15 | 0.893 | 13.6
28 | AAQNCYKVTNG [TPI1_Y105] | 0.523 | 0.725 | 0.356 | 0.905 | 0.665 | 0.421 | 0.411 | 0.391 | 0.738 | 0.37 | 0.408 | 0.411 | 0.536 | 0.852 | 0.543 | 0.594
29 | ALKKPYSVLFK [RPF2_Y59_G60S_YF] | 0.556 | 0.815 | 0.526 | 0.968 | 0.729 | 0.43 | 0.419 | 0.502 | 0.581 | 0.411 | 0.435 | 0.448 | 0.617 | 1.6 | 1.65 | 1.58
30 | RLLCEYQELMN [KRT75_Y434_R432C] | 0.961 | 1.5 | 0.647 | 1.78 | 1.33 | 1.09 | 0.83 | 0.839 | 0.804 | 1.34 | 0.761 | 0.369 | 1.6 | 0.618 | 0.566 | 0.54
31 | WFISFYPQVIM [CTNS_Y143_S139F] | 0.485 | 1.22 | 0.359 | 1.53 | 1.13 | 0.637 | 0.413 | 0.451 | 0.758 | 0.541 | 0.446 | 0.315 | 0.838 | 0.684 | 0.618 | 0.444
32 | PSGPMYRGAVP [ASAH1_Y43_T42M] | 0.392 | 0.617 | 0.334 | 1.21 | 0.67 | 0.539 | 0.467 | 0.347 | 0.68 | 0.34 | 0.48 | 0.483 | 0.573 | 0.926 | 0.842 | 0.472
33 | IITVHYVLEES [RYR2_Y4559_A4556T] | 0.594 | 1.17 | 0.523 | 1.22 | 1.02 | 0.577 | 0.53 | 0.579 | 0.794 | 0.777 | 0.517 | 0.498 | 0.831 | 1.45 | 1.56 | 1.37
